According to the DeepSol protein solubility set:

Assay: soluble on expression in E. coli; label from the status in PepcDB or PDB records

Sequence	soluble on expression in E. coli
MNTNERIVPLLPLRGVLVYPTMVLHLDVGRDKSIQALEQAAMDENIIFLAMQKEMNIDDPKEDDIYSVGTVAKVKQMLKLPNGTLRVLVEGLHRAEVVEFIEEENVVQVSIKTVTEEVEADLEEKALMRTLLEHFEQYIKVSKKVSNETFATVADVEEPGRLVDLIASHLPIKTKQKQEILEIISVKERLHTLISIIQDEQELLSLEKKIGQKVKRSMERTQKEYFLREQMKAIQTELGDKEGKGGEVEELREKIEQSGMPEETMKAALKELDRYEKLPASSAESGVIRNYMDWLLALPWTDATEDMIDLAHSEEILNKDHYGLEKVKERVLEYLAVQKLTNSLKGPILCLVGPPGVGKTSLARSIATSLNRNFVRVSLGGVRDESEIRGHRRTYVGAMPGRIIQGMKKAKSVNPVFLLDEIDKMSNDFRGDPSAALLEVLDPEQNHNFSDHYIEEPYDLSKVMFVATANTLSSIPGPLLDRMEIISIAGYTELEKVHIAREHLLPKQLQEHGLRKGNLQVRDEALLEIIRYYTREAGVRTLERQIAKVCRKVAKIIVTAERKRIVVTEKNVVDLLGKHIFRYGQAEKTDQVGMATGLAYTAAGGDTLAIEVSVAPGKGKLILTGKLGDVMKESAQAAFSYIRSRAEELQIDPNFHEKNDIHIHVPEGAVPKDGPSAGITMATALISALTGIPVSKEVGMTGEITLRGRVLPIGGLKEKTLSAHRAGLTKIILPAENEKDLDDIPESVKENLTFVLASHLDEVLEHALVGVKQ	not soluble
MGSDKIHHHHHHMFSSQKLKERRKKLGLSQAQTADKLGISRPSYFNWEIGKTKPNQKNLDKLAHLLKVDSAYFLSQHDIVEIYTRLNESNKTKTLKYSQYLLEQQDKERNLMKNKRYPYRVYEKLSAGTGYSYFGDGNFDTVFYDEEIDHDFASWIFGDSMEPIFLNGEVALIKQTGFDYDGAIYAIDWDGQTYIKKVYREETGLRLVSLNKKYADKFAPYDENPRIIGLIVGNFIPLEG	not soluble
MAKAAAGKKASPVKRVKKGGKAKDPNAPKRAMSAFFFWMQENRERIKKPGMGVADVAKAAGVEWGKLTDKSRWEKKAADDKKRYEVDIANYKKSQ	soluble
MTEYGGGEVYLLDLDSVVDGSALRMISSGGLRGRVLIHSALVDYLYSEAKRGRSAGYAGLAELSRLMDAGVGDVEIVVVEDDARVQPRDEGELKSVLRRYALRVGATLVTSDPVQARAARALGVSVLFTGRSRTGRIRIEEFFDGRTMSVHLKEGVPPLAKVGKPGSWMFVSLSDKPLTRAEIEEIAREIIEASALEEEGFIEIDRSGSTIVQLKDYRIVITRPPLSDGWEVTAVKPVAKLRLEDYSLPEKLYNRLLERAEGILIAGAPGMGKTTFAQALATFYAEQGKVVKTIESPRDMRLPPNVTQYSKNYADLGELHDILLLSRPDYTVYDELRSDEDFQLYVDLRLAGIGMIGVVHATTPIDAVQRFLRRVELGMIPSIIDTVIFIDSGEVSKVYELSITVKLPTGLREAELSRPVVEVRDFITGELEYEIYTFGEQTMVVPVRERRGRGEAAILGAIRKLLPDAEVEVRDETLIVRLPPRSSRVTARRLKRAKKLAEKHGYDIRFMPL	soluble
MIELKPPDVMPNGNIGTPSQYFLEQIRLCRLPTTVISKLGIQTQKRKKKFGEVDFQYEKTDSCKAEKIKCETIPGVEDELEDPTERVRMNQNPEDNDDGKDDDNDQCEEWERHEALHEDVTEQDRAKPRKYEEEMEVTWEKGGPGLVWYTDKNYWDEREKGTDCDWAWADDWDVDYSVYYEGKSAGDMDAKAAIEMRNDDLMRSGKLEQSAFTKKRNPHNLGTTRKRRNSDGGGSSEKASENLQKGIGGSMLAKMGWKPGTGLGKNEQGRVVPVAVYVEEDGQSSKEKTGFGYRGEKLSRVVQKKTIRHVIASAFDSVTDREQCEDKQSEEELHGEILFRRSEVTKMNKFQVLKLQFPKRNIQKTKTFQNFGKLSKCTQLYRFFLMN	not soluble
GKITFFEDRSFQGRCYECSSDCPNLQTYFSRCNSVRVDSGCWMLYERPNYQGHQYFLRRGEYPDYQQWMGFSDSIRSCRLIPHAGSHRMRLYEKEDHKGVMMELSEDCSCIQDRFHLSEVRSLQVLEGCWVLYEMPNYRGRQYLLRPQEYRRFQDWGSVDAKAGSLRRVVDLY	soluble
MILFPQNEDTVMSEMVAFRQGTSMPSRETILHYVVETVNQITELEPALHLLPWSGVNSAIYEQRFAQCYDEGLCAAQTSAPNVPQGILPSTDWAQGIGLLCFAAGYMSAGERPLTHNQLCDFVKQAAVGLSPIEGEAASGFSTVRSIALPVFRRLQRDGHASRVLLLQTLLHLVAWKSASQYARQQAQRLLWMGGILGEGGEHSLLVLDKALREEAVGEKSLPALLIFTSFLAHFPAGPVFID	not soluble
MTIKTGNIRTNSLAEIYRNSPVFQNLRNPDKYKGKCGVCEFRYVCGGSRSRAYAMTGGLYGKMAGDPLEHHHHHH	not soluble
MASSAQSGGSSGGPAVPTVQRGIIKMVLSGCAIIVRGQPRGGPPPERQINLSNIRAGNLARRAAATQPDAKDTPDEPWAFPAREFLRKKLIGKEVCFTIENKTPQGREYGMIYLGKDTNGENIAESLVAEGLATRREGMRANNPEQNRLSECEEQAKAAKKGMWSEGNGSHTIRDLKYTIENPRHFVDSHHQKPVNAIIEHVRDGSVVRALLLPDYYLVTVMLSGIKCPTFRREADGSETPEPFAAEAKFFTESRLLQRDVQIILESCHNQNILGTILHPNGNITELLLKEGFARCVDWSIAVYTRGAEKLRAAERVAKERRLRIWRDYVAPTANLDQKDKQFVAKVMQVLNADAIVVKLNSGDYKTIHLSSIRPPRLEGENTQDKNKKLRPLYDIPYMFEAREFLRKKLIGKKVNVTVDYIRPASPATETVPAFSERTCATVTIGGINIAEALVSKGLATVIRYRQDDDQRSSHYDELLAAEARAIKNGKGLHSKKEVPIHRVADISGDTQKAKQFLPFLQRAGRSEAVVEYVFSGSRLKLYLPKETCLITFLLAGIECPRGARNLPGLVQEGEPFSEEATLFTKELVLQREVEVEVESMDKAGNFIGWLHIDGANLSVLLVEHALSKVHFTAERSSYYKSLLSAEEAAKQKKEKVWAHYEEQPVEEVMPVLEEKERSASYKPVFVTEITDDLHFYVQDVETGTQLEKLMENMRNDIASHPPVEGSYAPRRGEFCIAKFVDGEWYRARVEKVESPAKIHVFYIDYGNREVLPSTRLGTLSPAFSTRVLPAQATEYAFAFIQVPQDDDARTDAVDSVVRDIQNTQCLLNVEHLSAGCPHVTLQFADSKGDVGLGLVKEGLVMVEVRKEKQFQKVITEYLNAQESAKSARLNLWRYGDFRADDADEFGYSR	soluble
GPGSMKKNLLADRTARVFEEARESATRLAAVSDTVSRAAVPHGIRHLFYTADTQREQRQCLAKVFAATCPSLHPLRSGEGEAGDGESSDPTSAAAAAHQDYILLILPDCAKVEDFISHVLLPGQADALRILGSQDDARCTDYLVERLDHTVQVQQQQRRRAETRKFIQRTVRKAEALDGDVGYPSSAPQPSPLFRRLEREVNATAAPIHAAASESQAPAPTSLATSPAVCAADSLTASSSPLRPPRRCFITCNCNNVRGLDLPHLTHVVILAQPTTALEYAHWCGRVGRFGRPGVSVTLMARSATRHMHQFCDSLGIAFRVEKRHAEVDVNAERWLSGADAE	soluble
MPSRLHSAVMSGTRDGDLNAAIRTALGKVIDPELRRPITELGMVKSIDTGPDGSVHVEIYLTIAGCPKKSEITERVTRAVADVPGTSAVRVSLDVMSDEQRTELRKQLRGDTREPVIPFAQPDSLTRVYAVASGKGGVGKSTVTVNLAAAMAVRGLSIGVLDADIHGHSIPRMMGTTDRPTQVESMILPPIAHQVKVISIAQFTQGNTPVVWRGPMLHRALQQFLADVYWGDLDVLLLDLPPGTGDVAISVAQLIPNAELLVVTTPQLAAAEVAERAGSIALQTRQRIVGVVENMSGLTLPDGTTMQVFGEGGGRLVAERLSRAVGADVPLLGQIPLDPALVAAGDSGVPLVLSSPDSAIGKELHSIADGLSTRRRGLAGMSLGLDPTRR	not soluble
GMWWYSSIKYSADKVLLDTTRMYYYFINRTPRMEIGRMIAVLSGSFEFSKQYNKEIQERETDDYEVPRLMKQIAGVNDKGKEQPLSQPYALKSRVLLHAYLSRLPLESQNDALEEDQSYIITRILRFVEEMVNCSQNLMNYSQHTKISIETFDNLLKLQPMFVQALWQKNSPLLQLPHITDYNLQHLRKKRVFSCHDLAVMDAETRRSVLRSLSNEEYRDVMVVLSMMPRLQIETKTVVEGEDDKHELTAGCVVTLKVTMRRSRLIDPQEAGLADQYKKYAEDGGDDELEASEAPEEAAATVEEEEVKKRKPWEKNKPKQKKKKAQGQGQKKFVKKNAPASPDTEKALKEE	not soluble
SSVLLRPILPEDEPKHASFISQVSHDDLYKRFFSEVGEFNHEALANFTQIDYDREMAFVATKQIDGEEIIIAVVRALSDPNHTNTEFAVLVRSDLKGLGLGKILMEKIIRYCQSIGIKVMTGMTMPANHGMIGLAQHLGFSVDIQMSDGVVDMFLEL	not soluble
MSLYATMESVRLQSEAQQLAEMILQSETAENYRNCYKRLQEDEEAGRIIRSFIKIKEQYEDVQRFGKYHPDYREISRKMREIKRELDLNDKVADFKRAENELQSILDEVSVEIGTAVSEHVKVPTGNPYFDGLSSCGGGCGSGGSCGCKVSEGHHHHHH	soluble
MGSDKIHHHHHHMKFLDVNQHLSELDEHIKVLKSYGDVFEAVEARITRVINMDGAFKGEGAKGVIYNHTHMQLPTIRSIRAFLISFSDTLEKMKANITEYEPASNGSVSENFWKNQLPKAYDRYEETLEEREATINQATAQVSHILHLGKLQTGDLYNSVDSARKHADTVLEGLYDLDQAGVELMAQVRTKMEELKATIRQVLDWNMTGGVTMKGVSIMEIGGYFANNATLHEKAPEVKVELLDLNPLVQYANDFPLRFKYDTMHSINESI	not soluble
MSLEFLRDFGKTALIHQGNEISYAELLENIASFANLMDITPNERVGIVMENRPEWVYAFYGTWKKGGIVVPIDFMSTPQEIRYILEDAEPSIIFCSDETYPRVREASEDLKVEIVNVDNLVLPTPWEGIVRRDEDDVAVLPYTSGTTGNPKGVMLTFKNLMSNIRGVSEVGIAGKEDKTLAILPFHHMYPLMTTMLLPLYLGATVVFLDKLTPEDIIEKLQKYQITVLIGVPRLYQLFHRRIMEEINKNVLAKNLFKLMKKVKNQKIRKTVFKKVHDAFGGRIKYMVSGGAKLPLDIAQDLTTLGFTVIEGYGLTETSPIVSFNPPNRIKLGSVGVPIKGVEVMTTSEGEIIVRGDNVMKGYWKKPEETQKVIINGWFYTGDLGEIDEEGYIYITGRKKEIIVLGSGKNVFPEEIESKILAKAPYIKEVGVFEKDGKLLALIYPDFEKVKELGITNLEETIKWEVIDKVNRELPEWKRVVGFKIVKTELPKTRLGKLRRFLLPQIYEKAEEIKEEKTEDYSVFETEEGRIIKEFLEKISQKEVKPGDHLEIDLGLDSLAKVELLGFIETNFGVSLSEEELSKNLVVKDLIELVRSKKKSVDTKEVSWKDILTKAKPYELYHYPLIFELGRKLLKLYFKLYHRIDVRGLENLPKPPFIIAPNHQSYLDAFAIAAVLPKEIAHETYFLGDETYFRNPITSTFGKLAHVITVNVNKGLKESLQKTAYALMSGKVVVIFPEGARTRTEELMEFKKGVAILARELGVPIVPVAIEGAYEAWSVYDKFPKPKKIKIMFGKPVDPDEKSYEEITKELYEWIKSMLEFLKKESEGHHHHHH	soluble
MANADLDKQPDSVSSVLKVFGILQALGEEREIGITELSQRVMMSKSTVYRFLQTMKTLGYVAQEGESEKYSLTLKLFELGARALQNVDLIRSADIQMRELSRLTKETIHLGALDEDSIVYIHKIDSMYNLRMYSRIGRRNPLYSTAIGKVLLAWRDRDEVKQILEGVEYKRSTERTITSTEALLPVLDQVREQGYGEDNEEQEEGLRCIAVPVFDRFGVVIAGLSISFPTLRFSEERLQEYVAMLHTAARKISAQMGYHDYPF	soluble
